The text below walks through data of patent US20140072613A1, “Compositions and Methods for Treating Cutaneous Scarring” (priority 2012, published 2014).

Holding throughout (assay): biochemical
Common to all, as to assay type: biochemical

In test [1] the target is 266 human kinases (Homo sapiens, UniProt O75116). As to conditions: ROCK-II(h); 100 μM. The method in brief:
(§1)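 Steps: kinase transfers radiolabelled phosphate from ATP onto a positively charged substrate; the substrate is trapped on a negatively charged filter; bound radioactivity is counted by scintillation and compared with uninhibited (100%) activity.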

In test [2] the target is 266 human kinases (Homo sapiens, UniProt O75676). As to conditions: MSK2(h); 100 μM. The procedure, abridged: as §1
Test [3] concerns the target 266 human kinases (Homo sapiens, UniProt P24723). To be noted: PKGη(h); 100 μM. The procedure, abridged:
as §1

Test [4] addresses 266 human kinases (Homo sapiens, UniProt P51617). To be noted: IRAK1(h); 100 μM. The method in brief:
as §1

Test [5] deals with T1, 266 human kinases (Homo sapiens, UniProt Q13976).
T1 sequence (Q13976 1-671): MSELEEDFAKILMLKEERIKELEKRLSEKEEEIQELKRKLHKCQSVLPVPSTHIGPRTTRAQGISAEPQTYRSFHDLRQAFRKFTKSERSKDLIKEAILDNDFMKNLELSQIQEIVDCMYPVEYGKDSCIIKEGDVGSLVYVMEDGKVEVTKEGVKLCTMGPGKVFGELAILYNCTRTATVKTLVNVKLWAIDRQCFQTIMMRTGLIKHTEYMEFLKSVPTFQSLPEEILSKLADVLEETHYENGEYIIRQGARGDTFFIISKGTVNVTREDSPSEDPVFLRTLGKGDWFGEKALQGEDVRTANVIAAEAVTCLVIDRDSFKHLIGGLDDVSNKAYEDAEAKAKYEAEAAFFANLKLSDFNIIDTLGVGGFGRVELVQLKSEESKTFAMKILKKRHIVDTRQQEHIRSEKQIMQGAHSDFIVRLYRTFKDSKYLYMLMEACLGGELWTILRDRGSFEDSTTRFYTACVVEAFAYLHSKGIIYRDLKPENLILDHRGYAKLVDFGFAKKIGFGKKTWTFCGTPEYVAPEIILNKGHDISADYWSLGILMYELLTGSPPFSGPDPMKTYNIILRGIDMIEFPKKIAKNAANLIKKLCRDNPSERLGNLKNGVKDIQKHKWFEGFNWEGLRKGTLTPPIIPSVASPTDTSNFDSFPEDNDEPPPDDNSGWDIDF
As to conditions: PKG1α(h); 100 μM. The procedure, abridged:
as §1

In test [6] the target is T2, 266 human kinases (Homo sapiens, UniProt Q15831).
T2 sequence (Q15831 1-433): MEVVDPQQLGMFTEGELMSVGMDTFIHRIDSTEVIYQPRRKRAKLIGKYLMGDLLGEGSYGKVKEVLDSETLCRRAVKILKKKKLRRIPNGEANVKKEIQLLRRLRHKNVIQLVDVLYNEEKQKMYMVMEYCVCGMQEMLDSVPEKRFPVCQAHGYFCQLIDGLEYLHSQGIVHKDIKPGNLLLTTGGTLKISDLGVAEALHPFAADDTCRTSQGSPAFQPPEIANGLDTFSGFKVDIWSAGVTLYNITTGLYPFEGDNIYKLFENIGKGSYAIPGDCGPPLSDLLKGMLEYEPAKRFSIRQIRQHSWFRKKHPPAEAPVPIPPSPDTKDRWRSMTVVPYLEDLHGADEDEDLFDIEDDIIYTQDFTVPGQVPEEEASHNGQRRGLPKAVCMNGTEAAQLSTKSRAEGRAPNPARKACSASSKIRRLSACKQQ
To be noted: LKB1(h); 100 μM. The procedure, abridged: as §1

The target of test [7] is 266 human kinases (Homo sapiens, UniProt Q16513). To be noted: PRK2(h); 100 μM. The method in brief:
as §1

Test [8] concerns the target 266 human kinases (Homo sapiens, UniProt Q8WTQ7). As to conditions: GRK7(h); 100 μM. The method in brief: as §1
Test [9] deals with 266 human kinases (Homo sapiens, UniProt Q96GD4). To be noted: Aurora-B(h); 100 μM. The method in brief: as §1
Test [10] has as its target 266 human kinases (Homo sapiens, UniProt Q96RG2). As to conditions: PASK(h); 100 μM. The method in brief:
as §1

Test [11] has as its target T3, 266 human kinases (Homo sapiens, UniProt Q9BZL6).
T3 sequence (Q9BZL6 1-878): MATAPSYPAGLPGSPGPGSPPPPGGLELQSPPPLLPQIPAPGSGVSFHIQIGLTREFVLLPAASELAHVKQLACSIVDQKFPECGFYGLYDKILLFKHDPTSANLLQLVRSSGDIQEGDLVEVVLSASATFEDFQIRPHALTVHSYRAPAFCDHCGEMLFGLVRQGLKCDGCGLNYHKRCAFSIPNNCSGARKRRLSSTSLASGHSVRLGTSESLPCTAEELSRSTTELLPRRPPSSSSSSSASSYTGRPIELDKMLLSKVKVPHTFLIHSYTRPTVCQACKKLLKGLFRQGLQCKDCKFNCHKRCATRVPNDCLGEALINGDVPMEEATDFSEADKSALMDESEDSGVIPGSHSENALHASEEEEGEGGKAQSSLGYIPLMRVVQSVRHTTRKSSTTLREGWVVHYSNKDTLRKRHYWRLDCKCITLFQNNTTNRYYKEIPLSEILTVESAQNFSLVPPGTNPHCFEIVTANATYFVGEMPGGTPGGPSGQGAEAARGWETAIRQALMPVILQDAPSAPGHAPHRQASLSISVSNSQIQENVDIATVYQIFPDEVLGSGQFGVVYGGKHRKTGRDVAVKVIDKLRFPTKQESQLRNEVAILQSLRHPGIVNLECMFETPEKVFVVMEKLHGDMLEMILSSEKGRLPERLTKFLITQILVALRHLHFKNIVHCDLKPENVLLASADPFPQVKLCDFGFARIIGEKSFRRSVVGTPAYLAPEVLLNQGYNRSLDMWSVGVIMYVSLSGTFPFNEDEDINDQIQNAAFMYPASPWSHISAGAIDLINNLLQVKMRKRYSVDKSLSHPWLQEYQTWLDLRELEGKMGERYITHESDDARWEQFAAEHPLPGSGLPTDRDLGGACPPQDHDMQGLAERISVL
To be noted: PKD2(h); 100 μM. The procedure, abridged: as §1

Test [12] has as its target 266 human kinases (Homo sapiens, UniProt Q9P286). To be noted: PAK5(h); 100 μM. The method in brief:
as §1

Test [13] addresses 266 human kinases (Homo sapiens, UniProt Q9UK32). To be noted: Rsk4(h); 100 μM. The method in brief:
as §1

266 human kinases (Homo sapiens, UniProt P51617), sequence (P51617 whole entry): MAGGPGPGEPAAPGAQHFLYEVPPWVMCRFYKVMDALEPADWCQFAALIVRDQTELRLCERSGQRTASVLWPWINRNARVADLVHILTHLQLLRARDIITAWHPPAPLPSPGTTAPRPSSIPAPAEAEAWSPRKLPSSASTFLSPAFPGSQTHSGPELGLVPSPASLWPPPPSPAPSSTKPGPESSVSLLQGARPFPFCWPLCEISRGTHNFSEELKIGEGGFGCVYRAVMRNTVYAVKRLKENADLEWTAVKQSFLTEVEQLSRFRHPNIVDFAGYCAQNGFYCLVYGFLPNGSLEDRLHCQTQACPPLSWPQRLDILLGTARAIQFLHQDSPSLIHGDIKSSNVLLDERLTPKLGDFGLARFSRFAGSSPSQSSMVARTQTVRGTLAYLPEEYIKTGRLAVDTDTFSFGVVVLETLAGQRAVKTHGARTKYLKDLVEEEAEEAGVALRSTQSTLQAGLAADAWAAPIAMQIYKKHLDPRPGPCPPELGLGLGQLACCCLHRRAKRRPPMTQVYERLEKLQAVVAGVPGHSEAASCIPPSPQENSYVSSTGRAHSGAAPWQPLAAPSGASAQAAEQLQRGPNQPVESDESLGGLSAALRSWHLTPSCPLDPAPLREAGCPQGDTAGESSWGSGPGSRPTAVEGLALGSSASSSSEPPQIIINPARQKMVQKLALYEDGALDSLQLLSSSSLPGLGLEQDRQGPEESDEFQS
266 human kinases (Homo sapiens, UniProt Q96GD4), sequence (Q96GD4 whole entry): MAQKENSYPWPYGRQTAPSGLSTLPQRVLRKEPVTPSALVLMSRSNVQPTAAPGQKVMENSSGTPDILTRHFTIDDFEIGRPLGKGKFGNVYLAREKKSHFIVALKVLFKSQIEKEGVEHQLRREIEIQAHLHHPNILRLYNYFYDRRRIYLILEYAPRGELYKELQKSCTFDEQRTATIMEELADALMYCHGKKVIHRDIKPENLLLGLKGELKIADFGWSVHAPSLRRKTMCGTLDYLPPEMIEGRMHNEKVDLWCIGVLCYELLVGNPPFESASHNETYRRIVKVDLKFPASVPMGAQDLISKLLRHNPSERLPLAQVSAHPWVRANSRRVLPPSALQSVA
266 human kinases (Homo sapiens, UniProt O75116), sequence (O75116 whole entry): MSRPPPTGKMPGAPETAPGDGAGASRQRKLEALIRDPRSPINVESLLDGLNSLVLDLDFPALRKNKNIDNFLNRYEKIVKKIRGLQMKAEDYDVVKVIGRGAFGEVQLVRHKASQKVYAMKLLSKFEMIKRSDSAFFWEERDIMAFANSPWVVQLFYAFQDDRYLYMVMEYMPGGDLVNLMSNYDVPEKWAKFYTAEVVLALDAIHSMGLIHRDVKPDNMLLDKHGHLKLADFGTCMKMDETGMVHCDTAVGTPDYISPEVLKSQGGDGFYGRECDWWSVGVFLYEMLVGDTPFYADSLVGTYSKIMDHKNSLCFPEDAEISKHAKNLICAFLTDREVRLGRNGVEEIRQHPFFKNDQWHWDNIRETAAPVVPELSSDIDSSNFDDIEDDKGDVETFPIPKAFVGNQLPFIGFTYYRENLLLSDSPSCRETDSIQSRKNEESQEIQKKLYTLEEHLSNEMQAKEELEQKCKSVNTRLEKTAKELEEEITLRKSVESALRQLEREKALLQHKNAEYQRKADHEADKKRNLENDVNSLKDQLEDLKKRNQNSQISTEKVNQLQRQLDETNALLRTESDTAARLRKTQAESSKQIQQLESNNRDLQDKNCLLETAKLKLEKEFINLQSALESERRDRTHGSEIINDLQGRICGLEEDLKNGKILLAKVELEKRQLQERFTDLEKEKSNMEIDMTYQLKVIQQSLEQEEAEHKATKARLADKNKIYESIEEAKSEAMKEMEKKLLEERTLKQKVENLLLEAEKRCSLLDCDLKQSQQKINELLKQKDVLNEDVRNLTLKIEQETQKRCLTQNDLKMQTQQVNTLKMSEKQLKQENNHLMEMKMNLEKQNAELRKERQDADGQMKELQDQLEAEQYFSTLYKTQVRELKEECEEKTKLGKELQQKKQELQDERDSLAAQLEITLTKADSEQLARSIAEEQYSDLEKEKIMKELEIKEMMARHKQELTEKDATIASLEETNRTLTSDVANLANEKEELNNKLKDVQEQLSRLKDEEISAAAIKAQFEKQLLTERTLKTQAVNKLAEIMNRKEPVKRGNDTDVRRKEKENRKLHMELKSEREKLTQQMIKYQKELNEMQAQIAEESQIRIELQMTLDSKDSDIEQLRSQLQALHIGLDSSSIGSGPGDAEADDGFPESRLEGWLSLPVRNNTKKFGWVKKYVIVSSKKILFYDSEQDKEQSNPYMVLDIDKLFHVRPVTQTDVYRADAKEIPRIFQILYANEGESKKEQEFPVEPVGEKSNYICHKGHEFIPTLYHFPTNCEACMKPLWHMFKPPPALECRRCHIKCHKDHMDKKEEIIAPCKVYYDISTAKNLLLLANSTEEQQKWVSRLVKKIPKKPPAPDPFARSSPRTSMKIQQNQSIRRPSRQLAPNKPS
266 human kinases (Homo sapiens, UniProt Q9P286), sequence (Q9P286 whole entry): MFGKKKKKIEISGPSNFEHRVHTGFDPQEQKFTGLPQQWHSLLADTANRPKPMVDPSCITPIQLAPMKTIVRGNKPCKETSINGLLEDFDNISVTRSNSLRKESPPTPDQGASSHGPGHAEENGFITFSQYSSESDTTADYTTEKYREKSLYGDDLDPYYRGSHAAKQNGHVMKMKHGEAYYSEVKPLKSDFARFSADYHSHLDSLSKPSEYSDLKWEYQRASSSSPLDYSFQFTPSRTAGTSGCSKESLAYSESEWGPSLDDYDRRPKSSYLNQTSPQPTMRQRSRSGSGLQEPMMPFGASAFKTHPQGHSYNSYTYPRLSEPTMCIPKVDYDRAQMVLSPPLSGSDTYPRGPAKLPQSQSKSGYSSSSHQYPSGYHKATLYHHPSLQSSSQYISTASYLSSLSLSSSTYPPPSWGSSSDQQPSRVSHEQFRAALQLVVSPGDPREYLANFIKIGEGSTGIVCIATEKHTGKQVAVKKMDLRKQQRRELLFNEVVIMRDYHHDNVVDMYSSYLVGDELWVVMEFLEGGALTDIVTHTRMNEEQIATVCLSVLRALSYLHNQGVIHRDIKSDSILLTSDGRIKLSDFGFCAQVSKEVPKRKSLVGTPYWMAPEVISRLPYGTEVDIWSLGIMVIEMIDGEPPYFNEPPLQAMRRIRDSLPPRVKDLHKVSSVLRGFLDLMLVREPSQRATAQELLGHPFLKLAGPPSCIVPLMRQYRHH
266 human kinases (Homo sapiens, UniProt Q9UK32), sequence (Q9UK32 whole entry): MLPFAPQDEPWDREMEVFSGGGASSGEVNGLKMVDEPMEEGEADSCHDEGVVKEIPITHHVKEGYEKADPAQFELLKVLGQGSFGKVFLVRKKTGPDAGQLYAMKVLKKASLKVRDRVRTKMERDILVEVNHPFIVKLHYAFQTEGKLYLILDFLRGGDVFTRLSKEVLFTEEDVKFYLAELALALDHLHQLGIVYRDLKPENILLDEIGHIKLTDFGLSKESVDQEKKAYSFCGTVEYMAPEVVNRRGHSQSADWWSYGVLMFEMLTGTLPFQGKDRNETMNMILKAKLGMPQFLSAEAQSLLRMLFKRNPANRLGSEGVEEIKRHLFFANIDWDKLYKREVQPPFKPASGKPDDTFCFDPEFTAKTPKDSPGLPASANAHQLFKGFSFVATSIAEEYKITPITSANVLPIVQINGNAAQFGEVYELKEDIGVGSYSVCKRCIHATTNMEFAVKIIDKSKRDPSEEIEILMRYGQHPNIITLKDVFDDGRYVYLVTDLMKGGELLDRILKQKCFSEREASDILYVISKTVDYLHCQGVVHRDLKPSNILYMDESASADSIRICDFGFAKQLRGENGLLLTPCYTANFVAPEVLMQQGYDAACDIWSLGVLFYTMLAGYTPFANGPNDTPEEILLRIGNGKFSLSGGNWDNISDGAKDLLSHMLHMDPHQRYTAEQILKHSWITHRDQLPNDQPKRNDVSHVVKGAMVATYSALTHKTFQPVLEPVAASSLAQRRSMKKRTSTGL
266 human kinases (Homo sapiens, UniProt Q8WTQ7), sequence (Q8WTQ7 whole entry): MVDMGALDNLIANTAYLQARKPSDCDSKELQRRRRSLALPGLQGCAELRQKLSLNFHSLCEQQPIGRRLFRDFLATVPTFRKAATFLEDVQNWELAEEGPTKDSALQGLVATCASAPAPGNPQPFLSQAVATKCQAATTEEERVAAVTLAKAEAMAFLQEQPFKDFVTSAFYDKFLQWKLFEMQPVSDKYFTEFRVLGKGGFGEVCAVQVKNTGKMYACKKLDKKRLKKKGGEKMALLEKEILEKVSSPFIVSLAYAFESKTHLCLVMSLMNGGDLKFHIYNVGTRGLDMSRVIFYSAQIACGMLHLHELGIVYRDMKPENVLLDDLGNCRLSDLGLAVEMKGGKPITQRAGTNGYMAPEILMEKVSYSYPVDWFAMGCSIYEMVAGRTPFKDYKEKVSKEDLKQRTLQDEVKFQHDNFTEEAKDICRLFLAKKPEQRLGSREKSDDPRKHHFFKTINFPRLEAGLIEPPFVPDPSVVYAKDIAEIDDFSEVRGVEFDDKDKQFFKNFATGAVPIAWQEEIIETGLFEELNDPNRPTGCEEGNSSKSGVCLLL

Consider “HRRIKAWLKKIKALARQLGVAA (mammal) [MMI-0500]”, for which the “% activity” value turned out to be 2% in [1]; 14% in [2]; 45% in [3]; 5% in test [4]; 25% in test [5]; 51% in test [6]. Also, the “% activity” value in [7] is listed as 7%; in [8] it was 93%; in [9], 5%; in test [10] it was 9%; in test [11], 10%; in test [12], 125%. The “% activity” value in test [13] came out at 29%.

For the sequence “YARAAARQARAKALNRQLGVA (mammal) [MMI-0200]”, the “% activity” value in test [1] was 85%; in [2], 88%; in test [3], 101%; in test [4], 101%; in test [5], 70%; in test [6], 99%. Moreover, the “% activity” value in [7] is given as 74%; in [8], 124%; in test [9], 166%; in test [10], 60%; in test [11], 78%; in test [12] it was 100%. Also, the “% activity” value in [13] came out at 125%.
